Values of other authors in paper PMC4845744.

Target: MutLα (Homo sapiens) (UniProt P40692)
Sequence (P40692 2-756, chain 1 of 2): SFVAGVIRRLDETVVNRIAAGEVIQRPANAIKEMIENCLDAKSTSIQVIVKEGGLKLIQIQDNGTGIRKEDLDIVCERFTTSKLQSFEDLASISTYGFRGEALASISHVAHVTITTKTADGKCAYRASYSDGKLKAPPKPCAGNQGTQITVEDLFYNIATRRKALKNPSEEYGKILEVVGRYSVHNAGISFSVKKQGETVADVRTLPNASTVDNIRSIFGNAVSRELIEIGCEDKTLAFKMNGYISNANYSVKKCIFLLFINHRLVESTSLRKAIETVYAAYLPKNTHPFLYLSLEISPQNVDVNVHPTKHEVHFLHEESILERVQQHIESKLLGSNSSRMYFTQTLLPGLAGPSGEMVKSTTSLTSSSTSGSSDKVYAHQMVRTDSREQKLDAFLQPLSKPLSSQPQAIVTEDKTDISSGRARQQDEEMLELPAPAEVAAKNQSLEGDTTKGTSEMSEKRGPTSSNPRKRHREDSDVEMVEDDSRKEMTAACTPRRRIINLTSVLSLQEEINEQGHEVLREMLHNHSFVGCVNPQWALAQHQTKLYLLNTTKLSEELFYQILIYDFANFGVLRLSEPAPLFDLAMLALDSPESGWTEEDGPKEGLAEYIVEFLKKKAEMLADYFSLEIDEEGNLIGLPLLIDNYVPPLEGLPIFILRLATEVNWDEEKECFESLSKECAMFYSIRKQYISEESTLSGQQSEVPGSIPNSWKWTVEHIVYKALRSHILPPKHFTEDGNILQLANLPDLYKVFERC
Sequence (P54278 whole entry, chain 2 of 2, further chain): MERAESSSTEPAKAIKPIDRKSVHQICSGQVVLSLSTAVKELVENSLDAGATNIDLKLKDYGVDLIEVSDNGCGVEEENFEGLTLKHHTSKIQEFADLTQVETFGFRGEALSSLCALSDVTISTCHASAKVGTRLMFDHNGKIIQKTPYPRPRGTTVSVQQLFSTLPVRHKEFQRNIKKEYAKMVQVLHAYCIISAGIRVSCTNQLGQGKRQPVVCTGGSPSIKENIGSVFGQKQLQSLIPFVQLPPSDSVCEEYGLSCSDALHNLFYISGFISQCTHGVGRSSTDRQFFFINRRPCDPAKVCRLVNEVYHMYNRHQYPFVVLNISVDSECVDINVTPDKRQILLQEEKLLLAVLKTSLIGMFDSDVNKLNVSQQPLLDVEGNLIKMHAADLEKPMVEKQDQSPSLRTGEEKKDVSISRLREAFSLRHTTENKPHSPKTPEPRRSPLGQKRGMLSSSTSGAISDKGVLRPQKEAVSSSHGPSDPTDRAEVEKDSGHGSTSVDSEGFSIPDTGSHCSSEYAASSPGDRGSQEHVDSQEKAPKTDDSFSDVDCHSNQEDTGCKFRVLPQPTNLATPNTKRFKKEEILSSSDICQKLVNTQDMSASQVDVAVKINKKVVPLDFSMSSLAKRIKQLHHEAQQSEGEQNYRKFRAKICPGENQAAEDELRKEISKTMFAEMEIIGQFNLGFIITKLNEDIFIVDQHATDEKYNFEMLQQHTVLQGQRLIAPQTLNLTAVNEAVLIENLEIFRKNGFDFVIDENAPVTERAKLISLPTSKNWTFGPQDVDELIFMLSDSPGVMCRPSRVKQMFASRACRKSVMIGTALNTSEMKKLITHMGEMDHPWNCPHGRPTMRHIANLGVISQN

- Kd: 250 nM
Substance: MutSβ (from UniProt P43246)
